According to publication PMC12377726 (Proceedings of the National Academy of Sciences of the …, 2025):
Numbering of substitutions follows the chain as printed.

B1: G001_LD_V05_VRC01c_17 (antibody, V domains shown)
VH: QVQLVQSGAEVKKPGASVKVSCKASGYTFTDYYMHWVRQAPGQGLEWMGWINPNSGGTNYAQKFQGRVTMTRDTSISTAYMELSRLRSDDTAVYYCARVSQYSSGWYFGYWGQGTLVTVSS
VL: DIQMTQSPSSLSASVGDRVTITCQASQDISNYLNWYQQKPGKAPKLLIYDASNLETGVPSRFSGSGSGTDFTFTISSLQPEDIATYYCQQYEFFGGGTKVEIK
B2: G001_LD_V05_VRC01c_20 (antibody, V domains shown)
VH: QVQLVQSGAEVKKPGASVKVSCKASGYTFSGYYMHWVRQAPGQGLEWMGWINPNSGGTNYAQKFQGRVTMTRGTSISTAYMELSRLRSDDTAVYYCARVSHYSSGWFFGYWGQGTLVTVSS
VL: B1 VL with E92D
B3: G001_LD_V05_VRC01c_21 (antibody, V domains shown)
VH: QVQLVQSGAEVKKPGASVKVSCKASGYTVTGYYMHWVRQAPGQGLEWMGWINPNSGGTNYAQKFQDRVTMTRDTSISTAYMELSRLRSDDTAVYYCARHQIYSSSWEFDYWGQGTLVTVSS
VL: B1 VL with S77I, I83T, E92D, F93T, G96P, E101D
B4: G001_LD_V05_VRC01c_29 (antibody, V domains shown)
VH: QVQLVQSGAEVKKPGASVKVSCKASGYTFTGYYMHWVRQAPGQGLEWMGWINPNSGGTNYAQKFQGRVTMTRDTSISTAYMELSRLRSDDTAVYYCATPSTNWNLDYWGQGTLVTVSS
VL: B1 VL with T74S, E81D, F93G, G96P, E101D
B5: G001_LD_V05_VRC01c_30 (antibody, V domains shown)
VH: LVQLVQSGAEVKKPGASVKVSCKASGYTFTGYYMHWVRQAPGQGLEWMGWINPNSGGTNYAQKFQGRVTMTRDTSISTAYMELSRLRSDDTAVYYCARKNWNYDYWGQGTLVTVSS
VL: B1 VL with A13T, S30T, E92D, F93N
B6: G001_gp1_V06_VRC01c_2021-0003 (antibody, V domains shown)
VH: QVQLVQSGAEVKKPGASVKVSCKASGYTFTGYYIHWVRQAPGQGLEWMGWINPNSGGTNYAQKFQGWVTMTRDTSISTAYMELRRLRSDDTAVYYCARVKDYYDSIGGWYFDLWGRGTLVTVSS
VL: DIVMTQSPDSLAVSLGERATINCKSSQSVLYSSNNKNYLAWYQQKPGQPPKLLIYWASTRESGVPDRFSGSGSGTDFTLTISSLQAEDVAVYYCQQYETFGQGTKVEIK
B7: G001_gp1_V06_VRC01c_2021-0004 (antibody, V domains shown)
VH: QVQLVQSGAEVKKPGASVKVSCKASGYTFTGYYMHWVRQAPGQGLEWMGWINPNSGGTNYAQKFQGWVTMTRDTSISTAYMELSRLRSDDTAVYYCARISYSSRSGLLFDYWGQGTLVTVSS
VL: B1 VL with E92N, F93T
B8: G001_gp1_V06_VRC01c_2021-0005 (antibody, V domains shown)
VH: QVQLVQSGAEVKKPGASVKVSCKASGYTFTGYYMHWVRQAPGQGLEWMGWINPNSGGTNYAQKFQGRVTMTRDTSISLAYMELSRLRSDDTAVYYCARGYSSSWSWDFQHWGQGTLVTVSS
VL: DIQMTQSPSTLSASVGDRVTITCRASQSISSWLAWYQQKPGKAPKLLIYKASSLESGVPSRFSGSGSGTEFTLTISSLQPDDFATYYCQQYETFGQGTKVEIK
B9: G001_gp1_V06_VRC01c_2021-0006 (antibody, V domains shown)
VH: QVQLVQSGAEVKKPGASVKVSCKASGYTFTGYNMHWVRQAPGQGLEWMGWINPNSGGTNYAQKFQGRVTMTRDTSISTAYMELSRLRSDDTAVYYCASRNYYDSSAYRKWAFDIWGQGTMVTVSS
VL: B1 VL with S30N, F93T, G96Q, K99R, V100L
B10: G001_gp1_V06_VRC01c_2021-0007 (antibody, V domains shown)
VH: QVQLVQSGAEVKKPGASVKVSCKASGYTFTGSYMHWVRQAPGQGLEWMGWINPNSGGTNYAQKFQGWVTMTRDTSISTAYMELSRLRSDDTAVYYCATASSGSYYWYFDLWGRGTLVTVSS
VL: EIVMTQSPATLSVSPGERATLSCRASQSVSSNLAWYQQKPGQAPRLLIYGASTRATGIPARFSGSGSGTEFTLTISSLQSEDFAVYYCQQYETFGQGTKVEIK
B11: G001_gp1_V06_VRC01c_2021-0008 (antibody, V domains shown)
VH: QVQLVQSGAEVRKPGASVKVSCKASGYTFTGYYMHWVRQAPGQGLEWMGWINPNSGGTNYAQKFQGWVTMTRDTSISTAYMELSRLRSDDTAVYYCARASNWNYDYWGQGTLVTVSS
VL: B1 VL with E55Q, E92D
B12: G001_gp1_V06_VRC01c_2021-0010 (antibody, V domains shown)
VH: QVQLVQSGAEVKKPGASVKVSCKASGYTFTGYYMQWMRQAPGQGLEWMGWINPNSGGTNYAQKFQGWVTMTRDTSISTVYMELSRLRSDDTAVYYCARGFTNWNLDYWGQGTLVTVSS
VL: EIVLTQSPGTLSLSPGERATLSCRASQSVSSSYLAWYQQKPGQAPRLLIYGASSRATGIPDRFSGSGSGTDFTLTISRLEPEDFAMYYCQQYETFGQGTKVEIK
B13: G001_gp1_V06_VRC01c_2021-0011 (antibody, V domains shown)
VH: QVQLVQSGAEVKKPGASVKVSCKASGYTFTGYYLHWVRQAPGQGLEWMGWINPNSGGTNYAQKFQGWVTMTRDTSISTAYMELSRLRSDDTAVYYCAVKDLDTMVRGGAFVFWGQGTMVTVSS
VL: DIQLTQSPSFLSASVGDRVTITCRASQGISSYLAWYQQKPGKAPKLLIYAASTLQSGVPSRFSGSGSGTEFTLTISSLQPEDFATYYCQQLNSFGGGTKVEIK
B14: G001_gp1_V06_VRC01c_2021-0012 (antibody, V domains shown)
VH: not shown
VL: B10 VL with V29F, P40S, E92H, Q96P, E101D
B15: G001_gp1_V06_VRC01c_2021-0014 (antibody, V domains shown)
VH: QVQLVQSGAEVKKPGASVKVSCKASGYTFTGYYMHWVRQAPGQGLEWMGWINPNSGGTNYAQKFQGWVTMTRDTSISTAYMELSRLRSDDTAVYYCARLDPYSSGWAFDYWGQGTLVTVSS
VL: B10 VL with E92G
B16: G001_gp1_V06_VRC01c_2021-0015 (antibody, V domains shown)
VH: not shown
VL: B8 VL with Y91W
B17: G001_gp1_V06_VRC01c_2021-0016 (antibody, V domains shown)
VH: QVQLVQSGAEVKKPGASVTVSCKASGYTFTGYYMHWVRQAPGQGLEWMGWINPTSGGTNYGQKFQGRVTMTRDTSISTAYMELSRLRSDDTAVYYCAITTVTSTWAFDIWGQGTMVTVSS
VL: B12 VL with S31N, S32N, K40T, M86V
B18: G001_gp1_V06_VRC01c_2021-0017 (antibody, V domains shown)
VH: not shown
VL: B12 VL with M86V, T94F, Q97P, E102D
B19: G001_gp1_V06_VRC01c_2021-0018 (antibody, V domains shown)
VH: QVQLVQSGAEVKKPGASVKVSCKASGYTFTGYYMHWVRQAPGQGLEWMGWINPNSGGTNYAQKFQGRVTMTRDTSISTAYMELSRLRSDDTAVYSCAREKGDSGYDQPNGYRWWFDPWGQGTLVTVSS
VL: B8 VL
B20: G001_gp1_V06_VRC01c_2021-0019 (antibody, V domains shown)
VH: QVQLVQSGAEVKKPGASVKVSCKASGYTFTGYYMHWVRQAPGQGLEWMGWINPNSGGTNYAQKFQDWVTMTRDTSISTAYMELRRLRSDDTAVYYCARPSYRSGWDMWYWGQGTLVTVSS
VL: B12 VL with M86V, T94G, Q97P, E102D
B21: G001_gp1_V06_VRC01c_2021-0020 (antibody, V domains shown)
VH: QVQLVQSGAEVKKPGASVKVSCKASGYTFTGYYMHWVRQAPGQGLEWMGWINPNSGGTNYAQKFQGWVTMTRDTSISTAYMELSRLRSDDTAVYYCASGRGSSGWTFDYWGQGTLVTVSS
VL: B1 VL with Y32F, Y36F, E92D, F93N, G96P, E101D
B22: G001_gp1_V06_VRC01c_2021-0021 (antibody, V domains shown)
VH: QVQLVQSGAEVKKPGASVKVSCKASGYTFTGDYMHWVRQAPGQGLEWMGWINPNSGGTNYAQKFEGWVTMTRDTSISTAYMELSRLRSDDTAVYYCARTPYSSSWLFNYWGQGTLVTVSS
VL: B1 VL with Y32F, D70N, E92D, F93L, G96P, E101D
B23: G001_gp1_V06_VRC01c_2021-0022 (antibody, V domains shown)
VH: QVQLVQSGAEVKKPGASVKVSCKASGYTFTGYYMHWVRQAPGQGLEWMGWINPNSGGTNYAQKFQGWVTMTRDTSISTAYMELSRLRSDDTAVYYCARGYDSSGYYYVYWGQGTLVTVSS
VL: B10 VL with E92N, T93N, K99R, V100L
B24: G001_gp1_V06_VRC01c_2021-0023 (antibody, V domains shown)
VH: QVQLVQSGAEVKKPGASVKVSCKASGYTFTDYYIHWVRQAPGQGLEWMGWINPNSGGTNYAQKFQDWVTMTRDTSITTAYMELSRLRSDDTAVYYCARGVRYSSSWYFGYWGQGTLVTVSS
VL: QSALTQPASVSGSPGQSITISCTGTSSDVGGYNYVSWYQQHPGKAPKLMIYDVSNRPSGVSNRFSGSKSGNTASLTISGLQTEDEADYYCSSYEVFGTGTKVTVL
B25: G001_gp1_V06_VRC01c_2021-0026 (antibody, V domains shown)
VH: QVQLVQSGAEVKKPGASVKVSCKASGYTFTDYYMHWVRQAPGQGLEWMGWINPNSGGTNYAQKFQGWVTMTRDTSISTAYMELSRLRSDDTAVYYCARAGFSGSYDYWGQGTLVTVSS
VL: B12 VL with S26C, M86V, V101L
B26: G001_gp1_V06_VRC01c_2021-0027 (antibody, V domains shown)
VH: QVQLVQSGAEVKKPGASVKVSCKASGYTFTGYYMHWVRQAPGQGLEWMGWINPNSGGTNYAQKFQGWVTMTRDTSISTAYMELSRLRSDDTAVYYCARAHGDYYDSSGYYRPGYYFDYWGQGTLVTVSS
VL: QSVLTQPPSVSGAPGQRVTISCTGSSSNIGAGYDVHWYQQLPGTAPKLLIYGNSNRPSGVPDRFSGSKSGTSASLAITGLQAEDEADYYCQSYEVFGGGTKLTVL
B27: G001_gp1_V06_VRC01c_2021-0028 (antibody, V domains shown)
VH: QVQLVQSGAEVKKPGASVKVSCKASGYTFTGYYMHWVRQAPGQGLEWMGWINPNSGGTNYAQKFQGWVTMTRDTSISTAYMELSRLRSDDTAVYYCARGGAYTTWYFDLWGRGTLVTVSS
VL: B12 VL with S31G, A52S, M86V
B28: G001_gp1_V06_VRC01c_2021-0030 (antibody, V domains shown)
VH: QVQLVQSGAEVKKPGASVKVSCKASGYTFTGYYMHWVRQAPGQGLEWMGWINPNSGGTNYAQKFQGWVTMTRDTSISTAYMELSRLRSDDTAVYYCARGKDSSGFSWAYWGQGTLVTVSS
VL: B8 VL with E92A
B29: G001_gp1_V06_VRC01c_76 (antibody, V domains shown)
VH: QVHLVQSGAEVKKPGASVKVSCKASEYTFSDYYMHWVRQAPGQGLEWMGWINPNSGGTNYAQKFQGRVTMTRDTSISTAYMELSRLRSDDTAVYYCATRGTGRYSYGSGTFYDYWGQGTLVTVSS
VL: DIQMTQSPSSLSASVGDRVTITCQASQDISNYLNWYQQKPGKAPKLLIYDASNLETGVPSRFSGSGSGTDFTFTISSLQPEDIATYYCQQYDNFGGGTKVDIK
B30: G001_gp1_V06_VRC01c_79 (antibody, V domains shown)
VH: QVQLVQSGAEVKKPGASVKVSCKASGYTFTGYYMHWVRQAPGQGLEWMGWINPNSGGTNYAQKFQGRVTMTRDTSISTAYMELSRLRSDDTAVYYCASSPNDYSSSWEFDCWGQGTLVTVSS
VL: EIVLTQSPGTLSLSPGERATLSCRASQSSSHLAWYQQKHGQAPRLLIYGASSRATGIPDRFSGSGSGTDFTLTISRLEPEDFAVYHCQQYETFGQGTKVEIK
B31: G001_gp1_V06_VRC01c_81 (antibody, V domains shown)
VH: not shown
VL: B10 VL with S12C, E92N, T93N
B32: G001_gp1_V06_VRC01c_82 (antibody, V domains shown)
VH: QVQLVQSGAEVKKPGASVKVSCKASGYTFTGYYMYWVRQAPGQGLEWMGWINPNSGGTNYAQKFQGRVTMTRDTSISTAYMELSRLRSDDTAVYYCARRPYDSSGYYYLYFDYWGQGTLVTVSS
VL: B10 VL with Q96G
B33: G001_gp1_V06_VRC01c_83 (antibody, V domains shown)
VH: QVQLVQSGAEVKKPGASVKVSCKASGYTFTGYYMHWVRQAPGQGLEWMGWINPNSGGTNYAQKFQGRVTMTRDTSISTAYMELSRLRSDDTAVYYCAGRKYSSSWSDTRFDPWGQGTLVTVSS
VL: B1 VL with S30N, F93A, G96Q
B34: G001_gp1_V06_VRC01c_86 (antibody, V domains shown)
VH: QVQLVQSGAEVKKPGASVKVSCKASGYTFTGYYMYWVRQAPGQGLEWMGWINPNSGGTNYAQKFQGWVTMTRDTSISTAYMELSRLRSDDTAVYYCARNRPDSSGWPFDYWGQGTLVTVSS
VL: B24 VL with A8P, V10A, I18V, D52E, N55K, S61P, N62D, I77V, T82P, K101R
B35: G001_gp1_V06_VRC01c_87 (antibody, V domains shown)
VH: not shown
VL: B10 VL

Target: eOD-GT8 (engineered outer domain germline-targeting version 8), monomer (HIV-1 gp120 engineered outer domain, …)

Binder	binding result
B1	binds
B2	binds
B3	binds
B4	binds
B5	binds
B6	binds
B7	binds
B8	binds
B9	binds
B10	binds
B11	binds
B12	binds
B13	binds
B14	binds
B15	binds
B16	binds
B17	binds
B18	binds

Binder	binding result
B19	binds
B20	binds
B21	binds
B22	binds
B23	binds
B24	binds
B25	binds
B26	binds
B27	binds
B28	binds
B29	binds
B30	binds
B31	binds
B32	binds
B33	binds
B34	binds
B35	binds
